The source of these data is the supplement of paper PMC12042874.

± gives the uncertainty stated by the source.

This data set is described as follows: amyloid nucleation score (Sup35N fusion, yeast selection) (log enrichment); library NNK1; higher = more nucleation; inactive = no reads after selection. The procedure, abridged: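 Plasmid inserts were Illumina-sequenced at input and output from psi-negative yeast expressing Sup35N fused to peptides of 20 random codons. The yeast were induced with 100 μM copper sulfate for 24 hours and grown 7 days at 30°C on medium lacking adenine and uracil, and sequences with under 100 input reads were excluded. Nucleation score is the DiMSum log enrichment of output over input reads, centred on the mode score of non-aggregating sequences.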
RSIRSIESNYYLRNVTFISR had an amyloid nucleation score of 1.09 ± 0.31.

RSLFLDCS registered an amyloid nucleation score of -0.475 ± 0.91.

For the substance RSLKMINNYISKLHVLMGFH, the amyloid nucleation score was -0.281 ± 0.76.

The substance RSLNPVISFLN had an amyloid nucleation score of -0.329 ± 0.69.

On to RSMACVRLFDFQSQLYFRVF, for which the amyloid nucleation score was -0.186 ± 0.77.

The substance RSNCWFEV had an amyloid nucleation score of 0.035 ± 0.4.

In the case of RSNEIVEFGSPWYKMTKGMR, the amyloid nucleation score was 0.44 ± 0.31.

RSNTRCAFKNFIFSMTCAFK yielded an amyloid nucleation score of 0.823 ± 0.5.

On to RSQCQAGCELYGFA, for which the amyloid nucleation score was -0.303 ± 0.78.

Turning to RSQPLGADVVKLPASRLGRL, the amyloid nucleation score is -1.11 ± 0.94.

RSRLPGCDFVPLYEVH displayed an amyloid nucleation score of -0.472 ± 0.44.

With RSSCVELGWIGWRARTNR, the amyloid nucleation score came out at 0.407 ± 0.57.

On to RSTISGWR, for which the amyloid nucleation score entry was “inactive”.

Take RSVCYIKNPVVAREFLVLSA: the amyloid nucleation score result is “inactive”.

As to RSVFEKNWVGCITEMTIWFA, the amyloid nucleation score was -0.47 ± 0.73.

With RSWVCSSGLMVLRWNGRSYF, the amyloid nucleation score entry is “inactive”.

Turning to RSYCKRALMLDWFAISRMRL, the amyloid nucleation score came out at 0.082 ± 0.51.

RTCVIVKMNSTIALYLGQKE displayed an amyloid nucleation score of 2.52 ± 0.12.

Substance RTDFLMFIGCVMNKICTLKA registered an amyloid nucleation score of 0.73 ± 0.33.

In the case of RTFFRFKMSPWCINDYIMMR, the amyloid nucleation score was found to be 0.222 ± 1.2.

Substance RTGLY yielded an amyloid nucleation score of 0.108 ± 0.33.

In turn, RTIGFTEELP gave an amyloid nucleation score of -0.577 ± 0.96.

RTIIDESVTAFLIWFCYVTV had an amyloid nucleation score of -0.21 ± 0.26.

Substance RTMEYAPGCLVAFDYK showed an amyloid nucleation score of 0.24 ± 0.44.

For the substance RTMKRSLSCVHCLLCLSPCQ, the amyloid nucleation score was -0.102 ± 0.29.

Turning to RTNSWAESHRSHCVCATSCG, the amyloid nucleation score is -0.743 ± 0.6.

The substance RTPVLSCWWFEYMELRGQST came in with an amyloid nucleation score of -0.412 ± 1.7.

On to RTRFTDASMVWDANFMSNLY, for which the amyloid nucleation score result is “inactive”.

In turn, RTSVLVSASALPNSLSFRQG had an amyloid nucleation score of -0.647 ± 1.1.

With RVCMLLYCQVKVGTVN, the amyloid nucleation score stood at 2.3 ± 0.11.

With RVEFHGIR, the amyloid nucleation score was 1.62 ± 0.32.

In the case of RVFLTSLEDRVHTLGQATNT, the amyloid nucleation score came out at 1.39 ± 0.5.

RVHQGLFDGNKAYQTGIHWN came in with an amyloid nucleation score of 0.041 ± 0.25.

RVIILMFTHRTCNS yielded an amyloid nucleation score of -1.07 ± 2.7.

The substance RVMVSGNAPSFVLNGGVSVR displayed an amyloid nucleation score of 0.874 ± 0.62.

RVNFSDTYTSSGGFALGMST showed an amyloid nucleation score of 0.43 ± 0.3.

RVSKYQYCIMYWRYRAI: the amyloid nucleation score came out at 0.442 ± 0.56.

Consider RVVLGTGDLVSCRFIFSLEK, for which the amyloid nucleation score was -1.25 ± 0.44.

The substance RWTEKGK came in with an amyloid nucleation score of -0.332 ± 1.9.

RYDSVFVIS registered an amyloid nucleation score of -0.129 ± 1.2.

The substance RYGVGLCAYMFFSCVDFRSG returned an amyloid nucleation score of 1.65 ± 0.4.

Consider RYLYVPALPFNFLCL, for which the amyloid nucleation score stood at 1.63 ± 0.1.

Substance RYRRFCFALVYMRKNI gave an amyloid nucleation score of -0.184 ± 0.42.

RYTFQFNYV: the amyloid nucleation score is 0.224 ± 0.38.

In turn, RYVLFALWWYKVGAEIYNKV returned an amyloid nucleation score of 0.48 ± 0.69.

The substance RYWYMTGMAMLNK yielded an amyloid nucleation score of 0.58 ± 0.84.

For SACALSYYCGWISRCSYLCP, the amyloid nucleation score was -0.158 ± 0.63.

Consider SACGVIRRLSAGYNCFYVK, for which the amyloid nucleation score is 0.229 ± 0.51.

As for SAGGHSLSVTYWSGCSLRTV, the amyloid nucleation score came to 0.272 ± 0.23.

Substance SAGSVADRGCLFSLRRASKC came in with an amyloid nucleation score of 0.851 ± 0.78.

Regarding SAHITDVLHKMWRNNTTTWY, the amyloid nucleation score came out at 1.15 ± 0.55.

The substance SAICRYVF returned an amyloid nucleation score of 0.768 ± 0.66.

In turn, SAKGIME gave an amyloid nucleation score of 1.03 ± 0.45.

Regarding SALRTCKFN, the amyloid nucleation score was found to be 0.826 ± 0.56.

SALYNAGCKLCLFTS: the amyloid nucleation score came to 0.004 ± 1.1.

SAQSTILICLHKGLDMSERH came in with an amyloid nucleation score of 5.8 ± 0.077.

Turning to SASEIPALSTTGSNGMDEVI, the amyloid nucleation score is -0.249 ± 0.54.

For the substance SASPLVAMDNVGCA, the amyloid nucleation score was -0.748 ± 0.37.

Take SAVINFLRSQKLLNCGMGVT: the amyloid nucleation score was -0.529 ± 1.7.

Turning to SAWKDAYFRVDVNEDFVS, the amyloid nucleation score came to 0.154 ± 0.32.

As for SCAAILEDVVHSAHILYLSH, the amyloid nucleation score was -0.92 ± 0.96.

Turning to SCARFITTNNQDSRLVASSN, the amyloid nucleation score is -0.718 ± 0.77.

Take SCATVPCKM: the amyloid nucleation score worked out at 0.53 ± 0.63.

Turning to SCILS, the amyloid nucleation score entry was “inactive”.

Substance SCKCLTSTGGGSGDRKGWNG displayed an amyloid nucleation score of 0.916 ± 0.55.

SCLKSDVYVCCEDLRRLDCV came in with an amyloid nucleation score of -0.453 ± 0.38.

As for SCLNNKSPSLI, the amyloid nucleation score was -0.342 ± 0.25.

Substance SCMTLLRFKRMEDLK showed an amyloid nucleation score of 2.45 ± 0.19.

The substance SCNDTI showed an amyloid nucleation score of -0.172 ± 1.5.

SCNSIGTCTLFKLHSLLS displayed an amyloid nucleation score of 0.701 ± 0.51.

In the case of SCNVFGASWRLTVNDVWYKW, the amyloid nucleation score was found to be 0.651 ± 0.22.

Turning to SCNYWCERVQGNSLWVGWVH, the amyloid nucleation score was -0.126 ± 0.35.

Turning to SCPAGFCCAGANKYHVLGV, the amyloid nucleation score is -0.137 ± 0.56.

As to SCPKVITNVLSSKTYPRMVG, the amyloid nucleation score amounted to 1.11 ± 0.34.

For SCRTLANITLCPRSIQF, the amyloid nucleation score worked out at 0.055 ± 0.65.

On to SCSWFFTYIVVAVNTLSISY, for which the amyloid nucleation score was -0.444 ± 0.75.

Regarding SCTLYYTSGSIMYAVMVLQE, the amyloid nucleation score is 0.526 ± 0.49.

Consider SCTVLWDKFDRLLWCSK, for which the amyloid nucleation score result was “inactive”.

SCVQRVLSIVNSFGRRSQTR registered an amyloid nucleation score of 0.269 ± 0.43.

For SCVRCQLS, the amyloid nucleation score stood at 7.454 ± 0.05.

As for SCYDVIVRWDFFLQQFCKMQ, the amyloid nucleation score stood at 1.73 ± 0.12.

SDALPVYVEFREGGKSRGWT: the amyloid nucleation score is -0.916 ± 1.1.

SDDLGE yielded an amyloid nucleation score of -0.301 ± 0.39.

SDEGLYPYLHLTFKTSTLWK gave an amyloid nucleation score of 0.201 ± 0.66.

The substance SDGWCRLRCES yielded an amyloid nucleation score of -0.429 ± 0.59.

SDLDVRAWQSLVSWIYRFPS showed an amyloid nucleation score of 0.18 ± 0.37.

Substance SDMLYLQLVKLASWFHFNLK displayed an amyloid nucleation score of -0.199 ± 0.38.

Substance SDPYDPRIVVVRIKLLLVME yielded an amyloid nucleation score of -0.153 ± 1.4.

Consider SDQDTGLHTLPCHTRS, for which the amyloid nucleation score result was “inactive”.

In turn, SDQNWMVPQDGPSPTSYLDD registered an amyloid nucleation score of -0.102 ± 1.5.

Regarding SDYILCIPWPSGLS, the amyloid nucleation score worked out at 0.734 ± 0.97.

Regarding SDYRRPKEPVSS, the amyloid nucleation score is 3.01 ± 0.16.

In turn, SEEGGNTASNRVDWYTTGIV came in with an amyloid nucleation score of 0.95 ± 0.48.

With SEEGMCSSMGVD, the amyloid nucleation score result is “inactive”.

Regarding SEHRMASRHVNPRPGGKDCR, the amyloid nucleation score was -1.54 ± 2.7.

SEHVIIGRRDFV: the amyloid nucleation score was -0.018 ± 1.

Substance SELFWMVGMGSLSSRYNSPF returned an amyloid nucleation score of 2.37 ± 0.087.

Turning to SELWDLG, the amyloid nucleation score is -0.197 ± 0.85.

Consider SERVMEWGTLKLYDSVHCVL, for which the amyloid nucleation score was -1.55 ± 2.7.

SEWGSQSSGAGSFTMV came in with an amyloid nucleation score of -1.35 ± 2.4.

Regarding SFALLTQLNEYKTARMKRAG, the amyloid nucleation score came out at 0.64 ± 0.35.

As for SFANVGSVGWAMYSGYTSRT, the amyloid nucleation score amounted to 0.002 ± 0.84.

For SFAVCGKLDHWCPCSAITLV, the amyloid nucleation score was found to be 1.08 ± 0.64.

The substance SFESYEH gave an amyloid nucleation score of 1.29 ± 0.9.

Take SFFDLSEA: the amyloid nucleation score was 0.918 ± 1.1.

Consider SFFDVLFKITWYNRVLMC, for which the amyloid nucleation score was 0.362 ± 0.79.

Consider SFIPKVGCKKEPARRASGNV, for which the amyloid nucleation score was 0.413 ± 1.4.

Substance SFIYTSPGFCWRDMFDWQVP returned an amyloid nucleation score of 0.339 ± 0.32.

Regarding SFLKVGFL, the amyloid nucleation score is -0.399 ± 1.1.

For SFLRGMASWLTQMHGKGWGW, the amyloid nucleation score was found to be 0.239 ± 0.69.

The substance SFLSSGINRSRCY returned an amyloid nucleation score of 0.154 ± 0.32.

As to SFSGYMLDCGEHTQMYSASI, the amyloid nucleation score amounted to 0.185 ± 0.35.

Take SFSRFVVMMKGIRAGKSSHT: the amyloid nucleation score is 0.156 ± 0.72.

For the substance SFVFAVWFW, the amyloid nucleation score was 0.181 ± 0.83.

Substance SFVVHVICGHVCSWSFSVWF displayed an amyloid nucleation score of 0.178 ± 0.33.

With SGAPYS, the amyloid nucleation score worked out at 0.185 ± 0.34.

For SGCPDPW, the amyloid nucleation score is -0.047 ± 1.7.

In turn, SGEDVSGCQDLFALVPMGQG registered an amyloid nucleation score of 0.495 ± 0.51.

As to SGFAVLKIVMAFHLTLEHQF, the amyloid nucleation score was determined as 0.479 ± 0.67.

Consider SGFIGS, for which the amyloid nucleation score was -1.33 ± 1.3.

Substance SGKLLISCVYSLENMC displayed an amyloid nucleation score of 1.39 ± 0.72.

Turning to SGMCNIQPQTCQ, the amyloid nucleation score was -0.351 ± 0.39.

With SGMGMSPLMMIWCRSSNRDL, the amyloid nucleation score entry was “inactive”.

The substance SGMSGCPKCGSWGSNKWYLW had an amyloid nucleation score of -0.004 ± 0.44.

SGMYRTNTAMFSFYDTTIVI: the amyloid nucleation score was -0.091 ± 0.84.

The substance SGNCSVSW came in with an amyloid nucleation score of 0.755 ± 0.97.

In turn, SGPHGRFDARSMLAIL showed an amyloid nucleation score of -0.773 ± 0.64.

SGSRGMFSKCVDK displayed an amyloid nucleation score of 1.86 ± 0.1.

SGTDLRISNHAT: the amyloid nucleation score result is “inactive”.

Take SGVSVVEGYHRSRVACRSVM: the amyloid nucleation score was -0.158 ± 0.52.

Substance SGVVE displayed an amyloid nucleation score of -0.433 ± 0.39.

In turn, SGYDDFWMTWTAKRVWHRAR yielded an amyloid nucleation score of -0.436 ± 0.64.

SHCYSLGMLKVWLGQIKTFG had an amyloid nucleation score of 1.8 ± 0.27.

With SHELVKHGYKY, the amyloid nucleation score is -0.436 ± 0.47.

In the case of SHGNLYGHHERLNSTRNPES, the amyloid nucleation score is -1.14 ± 0.9.

As to SHIGIFEGFYVYLPYDCITM, the amyloid nucleation score result is “inactive”.

SHIMRRFLWVELAQ registered an amyloid nucleation score of -1.18 ± 1.1.

SHPNRTCKWLHSSVLRTPVL returned an amyloid nucleation score of 0.313 ± 0.49.

Substance SHQSDGNWQMVYWCLLVRFT showed an amyloid nucleation score of -0.709 ± 0.56.

For the substance SHTYG, the amyloid nucleation score was 0.06 ± 0.59.

Regarding SIASIIRRFNWDTK, the amyloid nucleation score turned out to be 3.87 ± 0.095.
